# Results taken from patent US20150210998A1.
# No end group written: not given here.
# Target: His6-E6AP ligase (full-length, baculovirus-expressed) (human) (UniProt Q05086)
# Assay: inhibition of His6-E6AP-catalyzed 125I-polyubiquitin chain formation, semi-reciprocal plot; non-competitive versus UbcH7
binder,measurement,value
Ac-NRIRMYSERRITVLYSL [N-acetyl-… peptide],Ki,22 µM
